For this test, the target named is T1, human CD19 (human, UniProt P15391 20-556).
T1 construct: whole, on cells; also called huCD19; hCD19
T1 sequence (looked up): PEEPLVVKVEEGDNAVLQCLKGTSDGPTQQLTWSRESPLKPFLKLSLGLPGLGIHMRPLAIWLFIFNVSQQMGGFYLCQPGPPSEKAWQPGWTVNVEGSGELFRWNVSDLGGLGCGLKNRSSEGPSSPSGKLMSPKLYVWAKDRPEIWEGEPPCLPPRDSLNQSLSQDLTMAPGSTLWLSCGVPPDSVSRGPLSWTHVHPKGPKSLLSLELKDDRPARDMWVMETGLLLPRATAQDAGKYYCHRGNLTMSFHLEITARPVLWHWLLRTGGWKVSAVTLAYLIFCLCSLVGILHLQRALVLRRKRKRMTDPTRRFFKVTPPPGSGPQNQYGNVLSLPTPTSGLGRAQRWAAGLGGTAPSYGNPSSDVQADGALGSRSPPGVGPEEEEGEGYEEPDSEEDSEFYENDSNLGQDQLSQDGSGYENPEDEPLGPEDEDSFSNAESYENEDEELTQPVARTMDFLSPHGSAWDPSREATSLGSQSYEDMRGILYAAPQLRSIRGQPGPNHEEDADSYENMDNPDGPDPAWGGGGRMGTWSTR
Briefly: summary sentence of the examples; no method at this place.

B1: NEG258 (antibody, V domains shown)
VH: QVQLVQSGAEVKKPGASVKVSCKASGYTFTTYWIQWVRQAPGQRLEWMGAVYPGDADTRYTQKFQGRVTLTADRSASTAYMELSSLRSEDTAVYYCGRDAGLEYYALDYWGQGTLVTVSS
VL: EIVMTQSPATLSVSPGERATLSCRASQDVGTAVAWYQQKPGQAPRLLIYWASTRHTGIPARFSGSGSGTEFTLTISSLQSEDFAVYFCQQYANFPLYTFGQGTKLEIK
notes: also called CD19 antibody NEG258; anti-CD19 antibody NEG258
For B1, the binding result is recorded as “binds”.

B2: NEG218 (antibody, V domains shown)
VH: EVQLVQSGAEVKKPGESLKISCKASGYSFTNYWMNWVRQMPGKGLEWMGMIHPSDSEIRLNQKFQGQVTLSVDKSIGTAYMQWSSLKASDTAMYYCSRWYYLSSPMDYWGQGTTVTVSS
VL: EIVMTQSPATLSVSPGERATLSCRASQDVGTAVAWYQQKPGQAPRLLIYWASTRHTGIPARFSGSGSGTEFTLTISSLQSEDFAVYFCQQYSSYPYTFGQGTKLEIK
notes: also called CD19 antibody NEG218; anti-CD19 antibody NEG218
As to B2, the binding result is reported as “binds”.

Values taken from US20240025993A1 (Novartis, published 2024).
